Experimental findings from doi:10.1101/2024.12.20.629533 are described below.

For the test, the target named is VgrS (residues 81-729), Salmonella Typhimurium VgrG (Salmonella enterica serovar Typhimurium). The test can be described thus: crystal structure.

A word on the stoichiometry N: it is the number of molecules, sites or subunits per partner or assembly. On to “VgrS (residues 81-729), Salmonella Typhimurium VgrG (domain or fragment)”, for which the stoichiometry N came to 3.
